Here are results for two sequences from patent publication US20190045761.

Data set [1] deals with FAH 5.3 TALEN right (3') (synthetic construct). Briefly: cell_activity. The settings on record: TALEN pair with HDR oligo (HindIII) in RG-KO pig fibroblasts, 16 bp spacer.
The subject of data set [2] is FAH 5.3 TALEN left (5') (synthetic construct). Put plainly: cell_activity. The settings on record: TALEN pair with HDR oligo (HindIII) in RG-KO pig fibroblasts, 16 bp spacer.

“GGTATGTCCCAGACC (double strand) [FAH 5.3 TALEN 3' half-site]”: the activity (% of colonies positive) in data set [1] worked out at 5.3.

For “TCAGGGGCAAGGAGACT (double strand) [FAH 5.3 TALEN 5' half-site]”, the activity (% of colonies positive) in data set [2] amounted to 5.3.
